Assay results published in patent US10188706B2, “Plasminogen activator mutants as anti-fibrinolytic agents” (HADASIT MEDICAL RESEARCH SERVICES & DEVELOPMENT LIMITED, priority 2012, dated 2019).
“Also recorded” adds a separate entry of the source.

Experiments:
WT-tPA = assay: Fibrinolysis assay in human plasma derived clots, lysis by WT-tPA; assay type: biochemical
Procedure: (§1) Fibrinolysis Assay in Human Plasma Derived Clots
(§2) Clots were formed by placing human plasma (200 μL) in 16-mm diameter tissue culture wells flowed by adding thrombin (0.4 U/mL final concentration). Fibrinolysis was measured as described in Higazi A A et al., Blood (1998), 92(6):2075-83). Briefly, 10 μL tPA or uPA were placed over the plasma clots for 2 hours at 37° C., photographed and the diameter of the wholes were determined.

WT mice subjected to CHI = assay: Closed head injury (CHI) model of TBI in WT mice; assay type: in vivo, mouse; conditions: for neuroprotection (neurological severity score, NSS): given 2 hrs after CHI
Procedure: Eight to twelve weeks old C57 mice obtained from Harlan, Israel. Mice were administered standard laboratory chow and water ad libitum, and kept in controlled temperature and light conditions. Animal experiments were carried out according to the guidelines of the Hebrew University-Institutional Committee for Care and Use of Laboratory Animals, and with the committee's approval.
Closed Head Injury (CHI) Model
Head trauma was induced by using a modified weight-drop device, as previously described (Chen Y. et al. (1996) J. Neurotrauma, 13:557-568). Briefly, after induction of ether anesthesia, a midline longitudinal incision was made, the skin was retracted and the skull was exposed. The left anterior frontal area was identified and a Teflon tipped cone (2-mm diameter) was placed 1 mm lateral to the midline, in the midcoronal plane. The head was held in place manually and a 75-g weight was dropped on the cone from a height of 18 cm, resulting in focal injury to the left hemisphere. After trauma, the mice received supporting oxygenation with 95% 02 for no longer than 2 min and were then returned to their cages. In sham controls only anesthesia and skin incision were carried out.

tPA = assay: Plasminogen activator activity, chromogenic assay without fibrin, activation by tPA; assay type: biochemical, human; conditions: FIG. 2D
Procedure: (§3) Plasminogen Activator Activity
(§4) Plasminogen activator activity was determined by adding tPA (50 nM) or uPA (20 nM), to a reaction mixture containing Glu-plasminogen and the plasmin chromogenic substrate Spectrazyme PL (100 μM) in phosphate-buffered saline (PBS) at 37° C., and the light absorbance at 405 nm was measured continuously over time. The initial velocities of plasmin generation at the different conditions were calculated from the change in the A405 nm over time. The initial velocity of the reaction at each plasminogen concentration was obtained by calculating the change in the rate of A405 over different time intervals and the results were expressed as the change in optical density (ΔOD) per minute, which represents the slope of the initial velocity of plasminogen activation (Higazi A et al., J Biol Chem. (1995), 270(29):17375-80).

reteplase = reteplase (Homo sapiens, UniProt P00750); assay: Fibrinolysis assay in human plasma derived clots, lysis by reteplase; assay type: biochemical; conditions: reteplase 20 nM, mutant 10 nM, FIG. 2B
Procedure: as §1, §2

uPA [1] = molecular target: T1, uPA (Homo sapiens, UniProt P00749); assay: Fibrinolysis assay in human plasma derived clots, lysis by uPA; assay type: biochemical; conditions: uPA 50 nM; mutant 50 nM; FIG. 2A, 2B
T1 construct: Single-chain urokinase (uPA) was purified, characterized as previously reported; made in house
Procedure: as §1, §2

uPA [2] = molecular target: T1, uPA; assay: Plasminogen activator activity, chromogenic assay without fibrin, activation by uPA; assay type: biochemical; conditions: FIG. 2D
Procedure: as §3, §4

[3] = mutant 100 nM added together with TA

Chain of WT-tPA (P00750 36-562): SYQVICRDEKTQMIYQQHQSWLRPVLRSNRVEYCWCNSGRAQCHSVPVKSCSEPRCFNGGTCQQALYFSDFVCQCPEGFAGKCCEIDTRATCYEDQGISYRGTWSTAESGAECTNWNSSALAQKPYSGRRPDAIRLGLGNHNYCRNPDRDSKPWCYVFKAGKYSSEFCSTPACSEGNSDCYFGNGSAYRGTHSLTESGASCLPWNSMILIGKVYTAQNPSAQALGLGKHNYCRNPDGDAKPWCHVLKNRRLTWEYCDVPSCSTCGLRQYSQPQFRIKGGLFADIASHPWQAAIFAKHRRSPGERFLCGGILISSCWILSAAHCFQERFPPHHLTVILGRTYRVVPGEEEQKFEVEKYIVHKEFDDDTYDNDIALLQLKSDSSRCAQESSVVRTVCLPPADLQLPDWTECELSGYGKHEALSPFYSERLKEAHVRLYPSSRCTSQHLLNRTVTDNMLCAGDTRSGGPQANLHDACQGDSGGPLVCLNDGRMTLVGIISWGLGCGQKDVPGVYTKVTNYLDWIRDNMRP

B1: tPA-S^481A-DS: tPA double mutant, Ser481 to Ala and KHRR299-302 to AAAA (PAI-1 docking site); SEQ ID NO. 2 or 13 (protein, listed as Homo sapiens)
chain: GARSYQVICRDEKTQMIYQQHQSWLRPVLRSNRVEYCWCNSGRAQCHSVPVKSCSEPRCFNGGTCQQALYFSDFVCQCPEGFAGKCCEIDTRATCYEDQGISYRGTWSTAESGAECTNWNSSALAQKPYSGRRPDAIRLGLGNHNYCRNPDRDSKPWCYVFKAGKYSSEFCSTPACSEGNSDCYFGNGSAYRGTHSLTESGASCLPWNSMILIGKVYTAQNPSAQALGLGKHNYCRNPDGDAKPWCHVLKNRRLTWEYCDVPSCSTCGLRQYSQPQFRIKGGLFADIASHPWQAAIFAAAAASPGERFLCGGILISSCWILSAAHCFQERFPPHHLTVILGRTYRVVPGEEEQKFEVEKYIVHKEFDDDTYDNDIALLQLKSDSSRCAQESSVVRTVCLPPADLQLPDWTECELSGYGKHEALSPFYSERLKEAHVRLYPSSRCTSQHLLNRTVTDNMLCAGDTRSGGPQANLHDACQGDAGGPLVCLNDGRMTLVGIISWGLGCGQKDVPGVYTKVTNYLDWIRDNMRP
notes: tPA double mutant, Ser481 to Ala and KHRR299-302 to AAAA (PAI-1 docking site); 2 or 13
potency as inhibitor of fibrinolysis compared with TA (WT-tPA; TA tested at its maximal inhibitory concentration, FIG. 2B): more potent inhibitors of fibrinolysis than TA | lysis of human plasma derived clots by WT-tPA (WT-tPA; WT-tPA 20 nM, mutant 50 nM, FIG. 2A, 2B): Identical anti-fibrinolytic activity; also recorded: inhibited | intracerebral hemorrhage increased by injected WT-tPA post CHI (WT mice subjected to CHI; WT mice given WT-tPA 5 mg/kg immediately after CHI plus equimolar mutant): could be inhibited | plasma levels of d-Dimers post CHI (WT mice subjected to CHI; WT mice, 1 mg/kg IV, measured 2 hours after CHI, FIG. 4A, 1 mg/kg): significantly attenuated the increase in d-Dimers; also recorded: had the same effect on d-Dimers and post TBI thrombocytopenia | platelet counts / thrombocytopenia post CHI (WT mice subjected to CHI; WT mice, 1 mg/kg IV, measured 2 hours after CHI, FIG. 4B, 1 mg/kg): prevented the development of thrombocytopenia; also recorded: had the same effect on d-Dimers and post TBI thrombocytopenia | CSF fibrinolytic activity post CHI (WT mice subjected to CHI; WT mice, IV after CHI, CSF obtained 2 hours after CHI, tested on plasma derived clots): inhibited CSF fibrinolytic activity | intracerebral hemorrhage (MRI, extravasation of Hgb) post CHI (WT mice subjected to CHI; WT mice, IV immediately after or 2 hrs after CHI, Hgb at 2 or 8 hrs, MRI at 24 hrs): significantly attenuated the expansion of intracerebral hemorrhage; also recorded: decreased ICH to the same extent as tPA-S^481A | inhibition of intracerebral hemorrhage compared with combination of TA and aprotinin (WT mice subjected to CHI; combination in optimal concentrations, FIG. 3B): comparable to the inhibition induced by a combination of TA and aprotinin | neuroprotection (neurological severity score, NSS) (WT mice subjected to CHI; FIG. 5): the difference in neuroprotection provided by the two tPA variants vanished | neuroprotection (neurological severity score, NSS) (WT mice subjected to CHI; FIG. 5, listed as tPA^Ser481Ala-DS): lower neurological severity scores (NSS) | neuroprotection (neurological severity score, NSS, 24 hours after CHI) (WT mice subjected to CHI; given IV immediately after CHI, 1 mg/kg, FIG. 5): provided less neuroprotection than tPA-S^481A | potency as inhibitor of intracerebral hemorrhage compared with TA or aprotinin (WT mice subjected to CHI; optimal concentrations of TA or aprotinin, FIG. 3B): more potent inhibitors of intracerebral hemorrhage than optimal concentrations of TA or aprotinin | plasminogen activation by tPA in the absence of fibrin, in the presence of TA (tPA; [3]): inhibited the plasminogen activation induced by tPA | plasminogen activation by tPA in the absence of fibrin (change in OD per minute) (tPA; plasminogen 500 nM, WT-tPA 50 nM, mutants 100 nM or TA 200 nM alone): Neither tPA-S^481A nor tPA-S^481A-DS inhibited | clot lysis induced by reteplase (reteplase): inhibit the clot lysis induced by reteplase | lysis of human plasma derived clots by uPA (uPA [1]): Identical anti-fibrinolytic activity; also recorded: inhibited | plasminogen activation by uPA in the absence of fibrin, in the presence of TA (uPA [2]; [3]): inhibited the activation of plasminogen by uPA | plasminogen activation by uPA in the absence of fibrin (change in OD per minute) (uPA [2]; plasminogen 500 nM, uPA 20 nM, mutants 100 nM or TA 200 nM alone): Neither tPA-S^481A nor tPA-S^481A-DS inhibited
